Test results: patent US8889408B2, “Factor taking part in transcription control” (Sony Corporation, priority 2002, dated 2014)

Experiments:
MM-1-19-P cells = assay: ATRA-induced differentiation of MM-1-19-P rhabdomyosarcoma cells; format: cell-based, human
Excerpt: It is known that ATRA (all-trans retinoic acid) is an important inducer for tumor cell differentiation (20-22). The human rhabdomyosarcoma cell line MM-1-19-P is constituted mainly of small polygonal cells, which when provided with retinoic acid, ultimately differentiate into myotubular cytomegalic cells. In order to clarify the physiological role of HDART in the reaction ascribed to nuclear hormone receptors, the influence of the expression with HDART on the differentiation of MM-1-19-P caused by ATRA was analyzed.
MM-1-19-P cells were plated in a […] Petri dish, followed by co-transfection of the cells with 0.4 μg of pGFP vector and 2 μg of pcDNA3 (vacant vector) or pcDMA3-HDART (HDART expression vector). 24 hours after the transfection, the medium was changed with an ATRA-containing (2 μM) or ATRA-free fresh one. […] All experiments were repeated four times, and the number of cells assessed as positive for GFP was counted. It will be noted that in FIG. 12, the standard microphotographs of green fluorescence of GFP are shown in panels of FIGS. 12A, 12B, 12C and 12D, and the phase differential microphotographs are shown in panels of FIGS. 12E and 12F, respectively. In the figure, 12A indicates ATRA non-treated, vacant vector-introduced cells, 12B indicates ATRA treated, vacant vector-introduced cells, 12C indicates ATRA-non-treated, HDART expression vector-introduced cells, 12D indicates ATRA-treated, HDART expression vector-introduced cells, 12E indicates cells under the same conditions as in 12C above, and 12F indicates cells under the same conditions as in 12D above. In addition, the black arrow in the panel of FIG. 12F indicates undifferentiated GFP positive cells, and white arrow indicates differentiated cells.

HDAC4 = target: T1, HDAC4 (Homo sapiens, UniProt P56524); assay: Immunoprecipitation of GFP-HDART with Flag-HDAC in 293 cells; format: binding; settings: co-transfected 293 cells; anti-FLAG immunoprecipitation
T1 construct: expressed in transfected cells; host or cells: 293 cells
T1 sequence (P56524 whole entry, species assumed): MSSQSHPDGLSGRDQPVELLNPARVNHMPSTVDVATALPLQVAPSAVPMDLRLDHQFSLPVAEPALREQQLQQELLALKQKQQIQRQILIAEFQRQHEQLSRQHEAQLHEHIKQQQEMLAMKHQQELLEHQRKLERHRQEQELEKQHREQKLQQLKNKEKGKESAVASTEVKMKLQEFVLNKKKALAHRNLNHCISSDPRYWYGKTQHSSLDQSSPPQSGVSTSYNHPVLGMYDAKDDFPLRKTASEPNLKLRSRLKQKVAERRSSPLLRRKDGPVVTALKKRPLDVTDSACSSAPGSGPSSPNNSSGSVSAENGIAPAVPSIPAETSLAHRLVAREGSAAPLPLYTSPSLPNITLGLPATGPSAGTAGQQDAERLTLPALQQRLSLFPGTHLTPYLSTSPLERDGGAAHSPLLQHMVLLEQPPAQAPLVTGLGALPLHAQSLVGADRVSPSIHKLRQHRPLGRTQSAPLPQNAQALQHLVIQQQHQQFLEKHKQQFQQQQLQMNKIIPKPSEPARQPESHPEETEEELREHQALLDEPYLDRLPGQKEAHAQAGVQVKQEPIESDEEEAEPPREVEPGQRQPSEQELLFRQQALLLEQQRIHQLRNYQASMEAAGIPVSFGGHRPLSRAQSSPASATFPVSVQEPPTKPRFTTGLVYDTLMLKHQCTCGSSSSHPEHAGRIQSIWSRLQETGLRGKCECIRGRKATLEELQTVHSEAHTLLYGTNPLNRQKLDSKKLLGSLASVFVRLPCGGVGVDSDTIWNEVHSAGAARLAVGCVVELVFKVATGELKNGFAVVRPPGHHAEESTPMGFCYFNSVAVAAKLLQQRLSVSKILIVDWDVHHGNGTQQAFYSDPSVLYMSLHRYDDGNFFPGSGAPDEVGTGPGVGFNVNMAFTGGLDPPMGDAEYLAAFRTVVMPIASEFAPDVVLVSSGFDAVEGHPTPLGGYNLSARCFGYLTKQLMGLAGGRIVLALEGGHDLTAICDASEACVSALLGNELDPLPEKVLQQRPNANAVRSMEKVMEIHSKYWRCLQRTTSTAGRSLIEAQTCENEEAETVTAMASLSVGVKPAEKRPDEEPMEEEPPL
Experimental: (§1) Flag-HDACs expression vectors capable of expressing different types of HDAC (1, 3, 4 or 6) and a GFP-HDART expression vector were, respectively, co-transfected with 293 cells in the same manner as in Example 2, and cell extracts were prepared 24 hours after the transfection. The respective cell extracts were incubated with an anti-Flag antibody, followed by immunoprecipitation. The resulting immunoprecipitate was isolated with SDS-PAGE and an isolated pattern was transferred to a membrane, followed by immunoblotting with use of an anti-Flag antibody or […]. For reference, in order to confirm the expression of GFP-HDART protein in the respective cells, individual samples prior to the immunoprecipitation were similarly developed with SDS-PAGE to conduct immunoblotting with use of an anti-GFP antibody. […] The kinds of HDAC's from the left side of the figure are as follows: lane 1, HDAC1; lane 3, HDAC3; lane 4, HDAC4; and lane 5, HDAC6. It will be noted that lane 2 is for the sample in which GFP-HDART alone was expressed.

HDAC1 = target: T2, HDAC1 (Homo sapiens, UniProt Q13547); assay: as above; format: binding; settings: co-transfected 293 cells; anti-FLAG immunoprecipitation
T2 construct: made in house
T2 sequence (Q13547 whole entry, species assumed): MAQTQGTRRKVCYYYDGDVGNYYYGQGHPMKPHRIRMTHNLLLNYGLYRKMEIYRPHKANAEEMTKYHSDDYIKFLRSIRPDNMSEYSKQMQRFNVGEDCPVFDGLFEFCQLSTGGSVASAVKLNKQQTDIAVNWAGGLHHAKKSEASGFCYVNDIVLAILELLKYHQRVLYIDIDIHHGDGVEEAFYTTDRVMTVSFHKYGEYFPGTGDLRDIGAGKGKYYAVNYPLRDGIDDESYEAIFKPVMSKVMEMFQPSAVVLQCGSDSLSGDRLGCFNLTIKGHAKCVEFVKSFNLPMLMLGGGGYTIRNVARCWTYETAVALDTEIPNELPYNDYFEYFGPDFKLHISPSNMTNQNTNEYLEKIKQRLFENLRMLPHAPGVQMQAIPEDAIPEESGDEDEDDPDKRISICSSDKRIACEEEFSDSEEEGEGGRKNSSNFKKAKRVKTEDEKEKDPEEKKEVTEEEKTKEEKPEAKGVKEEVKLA
Experimental: as §1

Skip = target: T3, Skip (Homo sapiens, UniProt Q13573); assay: Yeast two-hybrid analysis (β-galactosidase) of HDART-Skip interaction; format: binding; design: expressed in transfected cells; host or cells: Saccharomyces cerevisiae Y190; settings: Gal4DBD-HDART and deletion mutants with Gal4AD-Skip; β-galactosidase activity
T3 sequence (Q13573 1-536): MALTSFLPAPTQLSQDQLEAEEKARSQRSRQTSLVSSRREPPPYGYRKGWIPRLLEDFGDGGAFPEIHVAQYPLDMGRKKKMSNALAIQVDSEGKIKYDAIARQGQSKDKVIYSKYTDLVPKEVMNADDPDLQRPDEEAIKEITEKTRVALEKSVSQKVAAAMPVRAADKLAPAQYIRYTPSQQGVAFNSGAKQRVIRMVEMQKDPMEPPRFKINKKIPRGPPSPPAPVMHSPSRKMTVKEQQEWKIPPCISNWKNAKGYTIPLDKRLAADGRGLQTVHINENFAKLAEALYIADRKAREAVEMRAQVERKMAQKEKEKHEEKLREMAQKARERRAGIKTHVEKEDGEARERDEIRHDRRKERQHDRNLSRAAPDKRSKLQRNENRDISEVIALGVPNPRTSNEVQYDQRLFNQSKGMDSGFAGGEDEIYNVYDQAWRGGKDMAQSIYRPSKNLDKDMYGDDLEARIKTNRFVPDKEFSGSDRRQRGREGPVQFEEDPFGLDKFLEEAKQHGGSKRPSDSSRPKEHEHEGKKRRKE
Excerpt: In order to isolate a protein that binds to this HDART, a yeast two-hybrid system was used. More particularly, a yeast MATCHMAKER two-hybrid analysis kit (Clontech) was used for the isolation. The ORF full length of HDART was inserted so that it and the Gal4 DNA binding domain reading frame were aligned in the same frame with each other within pAS-1 vector (Clontech). This bait plasmid was transformed into Saccharomyces cerevisiae Y190 along with pACT2 prey plasmid whose HeLa cDNA (Clontech) had been sub-cloned. The screening for clones into which both plasmids were introduced was carried out according to the kit protocol. […]
For mapping of regions on the Skip taking part in the interaction with HDART, a series of deletion mutations where various regions on Skip (N-terminus region (codon 1-220), nuclear hormone binding region (NHR binding, codon 221-388), and tran-activation region (TA, codon 438-536) were deleted, and the interaction between HDART and mutated Skip was analyzed according to the yeast two-hybrid analysis using Gal4DBD-HDART as set forth in Example 2. The results of the analysis are shown in FIG. 5A. The sign “+” indicated at the right of FIG. 5A indicates the observation of the interaction by the filter lift analysis of β-galactosidase activity, and the number of “+” indicates the relative intensity of the interaction. […]

B1: HDART: HDAC associated repressor TPR protein, 855 amino acids, SEQ ID NO: 2; transcription repressing factor, used as fusions or expressed from vector (protein, listed as Homo sapiens)
chain: MVVMARLSRPERPDLVFEEEDLPYEEEIMRNQFSVKCWLRYIEFKQGAPKPRLNQLYERALKLLPCSYKLWYRYLKARRAQVKHRCVTDPAYEDVNNCHERAFVFMHKMPRLWLDYCQFLMDQGRVTHTRRTFDRALRALPITQHSRIWPLYLRFLRSHPLPETAVRGYRRFLKLSPESAEEYIEYLKSSDRLDEAAQRLATVVNDERFVSKAGKSNYQLWHELCDLISQNPDKVQSLNVDAIIRGGLTRFTDQLGKLWCSLADYYIRSGHFEKARDVYEEAIRTVMTVRDFTQVFDSYAQFEESMIAAKMETASELGREEEDDVDLELRLARFEQLISRRPLLLNSVLLRQNPHHVHEWHKRVALHQGRPREIINTYTEAVQTVDPFKATGKPHTLWVAFAKFYEDNGQLDDARVILEKATKVNFKQVDDLASVWCQCGELELRHENYDEALRLLRKATALPARRAEYFDGSEPVQNRVYKSLKVWSMLADLEESLGTFQSTKAVYDRILDLRIATPQIVINYAMFLEEHKYFEESFKAYERGISLFKWPNVSDIWSTYLTKFIARYGGRKLERARDLFEQALDGCPPKYAKTLYLLYAQLEEEWGLARHAMAVYERATRAVEPAQQYDMFNIYIKRAAEIYGVTHTRGIYQKAIEVLSDEHAREMCLRFADMECKLGEIDRARAIYSFCSQICDPRTTGAFWQTWKDFEVRHGNEDTIKEMLRIRRSVQATYNTQVNFMASQMLKVSGSATGTVSDLAPGQSGMDDMKLLEQRAEQLAAEAERDQPLRAQSKILFVRSDASREELAELAQQVNPEEIQLGEDEDEDEMDLEPNEVRLEQQSVPAAVFGSLKED
- change in phenotype on ATRA treatment (MM-1-19-P cells; HDART expression vector-introduced GFP positive cells, ATRA 2 μM, 48 hours): little change in the phenotype
- numbers of GFP positive cells, ATRA treated versus non-treated group (MM-1-19-P cells; HDART expression vector-introduced cells): same
- interaction with HDAC4 (HDAC4): exhibits interaction
- interaction with HDAC1 (HDAC1): exhibits interaction
- interaction with Skip (Skip): able to directly interact with Skip
